# Experimental data reported in patent US20220282288A1, “NOVEL OLEATE HYDRATASES” (BRAIN BIOTECH AG, priority 2019, published 2022).
# B1: oleate hydratase from Lactococcus lactis: oleate hydratase of Lactococcus lactis strain A106, previously annotated as linoleate isomerase (protein, listed as Lactococcus lactis)
# chain: MRYTNGNYEAFVHPRKPENVDQKSAYIIGAGLAGLATAVFLIRDGQMSGDRIHILEELPLSGGSLDGSFIPHDGFVVRGGREMENHFECLWDLFRTIPSLEVDNASVLDEFYRIDRDDPNSSNCRIIHNRGERVDDDGKFTLSPKAQEEIIKLFMTKEELLVGKTIEDCFTDEFFESNFWLYWCSMFAFEKWHSAIEMRRYIMRFIHHIEGLPDFSALKFTKYNQYESLVKPLISYLKDHGVDFKYGAQVENVEVDFSNGKKVAKAIVFADKKIKELTGNDLVFVTNGSITESSTQGSPTQVAPKTSELGGSWKLWQNLAKQSEEFGHPDVFCKDIPKEAWVVSATVTWKNLKIQPYFEKLTHRQLRSGKVVTGGIVTVKDSNWLLSFTTHRQPHFKEQNDQETVTWVYGLLSNTPGNYIKKPIEDCTGEEITQELLYHLGMPEEEIEAFVKENTNTIPVYMPFITSYFMLREPGDRPLVVPEQSVNLAFLGNFAETERDTVFTTEYSVRTAMEAVYQLLNVDRGVPEVYASAYDLRTLASSAYYLSDKQKLEDLELSFIKKQALKVGLKKIKGTYIEELLEDAGLI
# modifications: Oleat Hydratase
# notes: oleate hydratase of Lactococcus lactis strain A106, previously annotated as linoleate isomerase
# B2: oleate hydratase from Lysinibacillus fusiformis: oleate hydratase of Lysinibacillus fusiformis, known from the prior art (protein, listed as Lysinibacillus fusiformis)
# chain: MYYSNGNYEAFARPKKPEGVDGKSAYLIGSGLASLSAACFLIRDGQMKGENIHILEELDISGGSLDGILNPTRGFIIRGGREMEDHFECLWDLFRSIPSLEVDNASVLDEFYWLNKEDPNYSKCRLIKDRGQRLEDDGKFTLSDQSSEEMIKLFFTPEEKLEDKKITDVFSEEFFESNFWLYWSTMFAFEKWHSAMEMRRYIMRFIHHIGGLPDLSALKFTKYNQYESLVLPMIKYLEGHDVDFQYNTVVENVLVDKVGDKKVAHTLVLRKNGVKENIELTENELVFVTNGSITESTTYGDNYTPAPVNKELGGSWSLWKNIAAQDTDFGRPEKFCDNLPKESWFVSATLTTLDDRVAPYIEKISKRDPYAGKVVTGGIVTATDSNWMLSYTLNRQPHFKHQPKDQLVVWIYGLLSNKPGDFIKKSITECSGIEIAQEWLYHMGVPVDEIPDIAQNSCNTIPCYMPYITSYFMPRAMGDRPLVVPEGSANLAFIGNFSETVRDTVFTTEYSVRTAMEAVYQLLNIDRGVPEVFASSFDVRTLLASTARLLDGKKLTDIDAPFILKQIGKLGIHKTKDTIIYDLLKESELI
# modifications: Oleat Hydratase
# notes: oleate hydratase of Lysinibacillus fusiformis, known from the prior art
# B3: 1LI-2Lf: chimeric oleate hydratase: 193 N-terminal amino acids of Lactococcus lactis enzyme and 397 C-terminal amino acids of Lysinibacillus fusiformis enzyme (protein)
# chain: MRYTNGNYEAFVHPRKPENVDQKSAYIIGAGLAGLATAVFLIRDGQMSGDRIHILEELPLSGGSLDGSFIPHDGFVVRGGREMENHFECLWDLFRTIPSLEVDNASVLDEFYRIDRDDPNSSNCRIIHNRGERVDDDGKFTLSPKAQEEIIKLFMTKEELLVGKTIEDCFTDEFFESNFWLYWCSMFAFEKWHSAMEMRRYIMRFIHHIGGLPDLSALKFTKYNQYESLVLPMIKYLEGHDVDFQYNTVVENVLVDKVGDKKVAHTLVLRKNGVKENIELTENELVFVTNGSITESTTYGDNYTPAPVNKELGGSWSLWKNIAAQDTDFGRPEKFCDNLPKESWFVSATLTTLDDRVAPYIEKISKRDPYAGKVVTGGIVTATDSNWMLSYTLNRQPHFKHQPKDQLVVWIYGLLSNKPGDFIKKSITECSGIEIAQEWLYHMGVPVDEIPDIAQNSCNTIPCYMPYITSYFMPRAMGDRPLVVPEGSANLAFIGNFSETVRDTVFTTEYSVRTAMEAVYQLLNIDRGVPEVFASSFDVRTLLASTARLLDGKKLTDIDAPFILKQIGKLGIHKTKDTIIYDLLKESELI
# modifications: OhyLlac579Lfus
# notes: chimeric oleate hydratase: 193 N-terminal amino acids of Lactococcus lactis enzyme and 397 C-terminal amino acids of Lysinibacillus fusiformis enzyme
# B4: 1Lf-2LI: chimeric oleate hydratase: 193 N-terminal amino acids of Lysinibacillus fusiformis enzyme and 394 C-terminal amino acids of Lactococcus lactis enzyme (protein)
# chain: MYYSNGNYEAFARPKKPEGVDGKSAYLIGSGLASLSAACFLIRDGQMKGENIHILEELDISGGSLDGILNPTRGFIIRGGREMEDHFECLWDLFRSIPSLEVDNASVLDEFYWLNKEDPNYSKCRLIKDRGQRLEDDGKFTLSDQSSEEMIKLFFTPEEKLEDKKITDVFSEEFFESNFWLYWSTMFAFEKWHSAIEMRRYIMRFIHHIEGLPDFSALKFTKYNQYESLVKPLISYLKDHGVDFKYGAQVENVEVDFSNGKKVAKAIVFADKKIKELTGNDLVFVTNGSITESSTQGSPTQVAPKTSELGGSWKLWQNLAKQSEEFGHPDVFCKDIPKEAWVVSATVTWKNLKIQPYFEKLTHRQLRSGKVVTGGIVTVKDSNWLLSFTTHRQPHFKEQNDQETVTWVYGLLSNTPGNYIKKPIEDCTGEEITQELLYHLGMPEEEIEAFVKENTNTIPVYMPFITSYFMLREPGDRPLVVPEQSVNLAFLGNFAETERDTVFTTEYSVRTAMEAVYQLLNVDRGVPEVYASAYDLRTLASSAYYLSDKQKLEDLELSFIKKQALKVGLKKIKGTYIEELLEDAGLI
# modifications: OhyLfus581Llac
# notes: chimeric oleate hydratase: 193 N-terminal amino acids of Lysinibacillus fusiformis enzyme and 394 C-terminal amino acids of Lactococcus lactis enzyme
# How the values were obtained:
# [1] = Effects of temperature on enzyme activity (oleic acid to 10-hydroxystearic acid); format: biochemical; conditions: pH7.0, 150 mM oleic acid, 20 min
# Protocol: The reactions were performed in 100 mM citrate/phosphate buffer (pH7.0) containing MgSO4;
# 3.1 mg/ml total protein of Lactococcus lactis (a) or 5.6 mg/mL of total protein of chimeric oleate hydratase from Lysinibacillus fusiformis and Lactococcus lactis (b). FAD (0.1 mM) and NADH (5 mM) were applied for the FAD-reducing conditions. Reactions were started by the addition of 150 mM oleic acid for 20 min. At the relative activity of 100%, the specific enzyme activity of the oleate hydratase from Lactococcus lactis was 0.8 μmol min^−1 mg^−1 total protein and the specific enzyme activity of the chimeric oleate hydratase from Lysinibacillus fusiformis and Lactococcus lactis was 1.0 μmol min^−1 mg^−1 total protein.
# [2] = Kim, Bi-Na et al. (2012); cited from earlier work
# [3] = Conversion of oleic acid to 10-hydroxystearic acid by cell-free extracts (HPLC); format: biochemical; conditions: for activity at 30° C. compared with the wildtype enzymes: FIG. 3; for conversion of oleic acid to 10-hydroxystearic acid: cell-free extracts, pH7.0, 30° C., 150 mM oleic acid, 60 min, FAD 0.1 mM, NADH 5 mM, HPLC analysis
# [4] = Effects of pH on enzyme activity (oleic acid to 10-hydroxystearic acid, HPLC-MS); format: biochemical; conditions: citrate/phosphate buffer pH 5.6-8.0, 30° C., 40 min, 150 mM oleic acid
# Protocol: The reactions were performed in 100 mM citrate/phosphate buffer (pH levels ranging from 5.6-8.0) containing MgSO4; 8.9 mg/ml total protein of Lactococcus lactis or 9.3 mg/mL of total protein of chimeric oleate hydratase from Lysinibacillus fusiformis and Lactococcus lactis. FAD (0.1 mM) and NADH (5 mM) were applied for the FAD-reducing conditions. Reactions were started by the addition of 150 mM oleic acid at 30° C. for 40 min. Following the reactions, the solutions of fatty acids and hydroxy fatty acids were recovered by three consecutive extractions with 1.6 volume of dichloromethane. After solvent evaporation, the resultant sample was diluted in ethanol and analyzed by HPLC-MS. Analyses were performed on an Agilent 1100 HPLC instrument equipped with evaporative light scattering detector (ELSD) and a Luna® C18 (2) HPLC column (RP-18e 5 μm, 250×4.6 mm) maintained at 50° C. The elution system consisted of ddH2O with 0.1% formic acid (A) and methanol with 0.1% formic acid (B). The gradient was set as follows: 0 min (80% B); 15 min (100% B); 23.2 min (80% B) at a flow rate of 0.7 mL min^−1.
# Data represent the mean±standard deviation of three independent experiments (FIG. 5A and FIG. 6A).
Molecule,specific enzyme activity at the relative activity of 100% [1],temperature of highest enzyme activity (temperature optimum) [1],temperature of maximal enzyme activity [2],activity at 30° C. compared with the wildtype enzymes [3],conversion of oleic acid to 10-hydroxystearic acid [3],pH optimum [4]
B1,0.8 μmol min^−1 mg^−1 total protein,15 °C,–,–,–,–
B2,–,–,35 °C,–,–,–
B3,–,–,–,higher than the wildtype enzyme from Lactococcus lactis and lower than the wildtype enzyme from Lysinibacillus fusiformis,confirmed,–
B4,1.0 μmol min^−1 mg^−1 total protein,–,–,higher than the wildtype enzyme from Lactococcus lactis and lower than the wildtype enzyme from Lysinibacillus fusiformis,confirmed,6.5
